Biological target: T1, Calnexin (Cnx) on the surface of human cells (MDA-MB-231 ER-G2, Huh7, KP4) (human), P27824
T1 chain: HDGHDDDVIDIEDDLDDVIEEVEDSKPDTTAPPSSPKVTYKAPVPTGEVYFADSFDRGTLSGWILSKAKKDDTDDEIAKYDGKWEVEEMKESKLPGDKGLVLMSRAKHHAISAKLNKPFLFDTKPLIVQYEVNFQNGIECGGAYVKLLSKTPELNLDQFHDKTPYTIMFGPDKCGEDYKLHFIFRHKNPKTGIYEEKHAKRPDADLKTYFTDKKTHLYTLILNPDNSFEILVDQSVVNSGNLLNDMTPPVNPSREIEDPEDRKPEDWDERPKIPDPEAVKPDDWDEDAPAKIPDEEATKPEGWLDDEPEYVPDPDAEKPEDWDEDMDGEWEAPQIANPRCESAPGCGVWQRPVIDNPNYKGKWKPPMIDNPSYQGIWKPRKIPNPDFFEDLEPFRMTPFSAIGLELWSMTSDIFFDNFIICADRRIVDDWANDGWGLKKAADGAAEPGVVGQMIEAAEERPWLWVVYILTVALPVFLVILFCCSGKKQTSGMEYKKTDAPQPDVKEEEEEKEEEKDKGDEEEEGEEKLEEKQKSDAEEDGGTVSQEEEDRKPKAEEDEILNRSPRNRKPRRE
Assay: proximity ligation assay on live, intact cells, probes for Cnx and ERp57
Conditions: remark: other sources report otherwise

B1: ERp57 (PDIA3) on the surface of human MDA-MB-231 ER-G2 cells, P30101 25-505 (enzyme, UniProt P30101 25-505, looked up)
chain: SDVLELTDDNFESRISDTGSAGLMLVEFFAPWCGHCKRLAPEYEAAATRLKGIVPLAKVDCTANTNTCNKYGVSGYPTLKIFRDGEEAGAYDGPRTADGIVSHLKKQAGPASVPLRTEEEFKKFISDKDASIVGFFDDSFSEAHSEFLKAASNLRDNYRFAHTNVESLVNEYDDNGEGIILFRPSHLTNKFEDKTVAYTEQKMTSGKIKKFIQENIFGICPHMTEDNKDLIQGKDLLIAYYDVDYEKNAKGSNYWRNRVMMVAKKFLDAGHKLNFAVASRKTFSHELSDFGLESTAGEIPVVAIRTAKGEKFVMQEEFSRDGKALERFLQDYFDGNLKRYLKSEPIPESNDGPVKVVVAENFDEIVNNENKDVLIEFYAPWCGHCKNLEPKYKELGEKLSKDPNIVIAKMDATANDVPSPYEVRGFPTIYFSPANKKLNPKKYEGGRELSDFISYLQREATNPPVIQEEKPKKKKKAQEDL
modifications: here or on the partner: O-GalNAc (Tn) glycosylation at T50, T59, T66, T79, S81 and S86 after GALA activation
proximity ligation assay signal, fold increase in MDA ER-G2 against wild-type MDA cells: 10 fold

Source: US20220363738A1
